Sequences and labels used below:
B1: T132I, Q2YD82 (parent)
chain: MDCAEGRAANLPCNHSTISGNEYVYWYRQIHSQGPQYIIHGLKNNETNEMASLIITEDRKSSTLILPHATLRDTAVYYCIVYDYGQNFVFGPGTRLSVLPYIQNPDPAVYQLRDSKSSDKSVCLFTDFDSQTNVSQSKDSDVYITDKTVLDMRSMDFKSNSAVAWSNKSDFACANAFNNSIIPEDTFFPSPESSCDVKLVEKSFETDTNLNFQNLSVIGFRILLLKVAGFNLLMTLRLWSS
B2: Osteomodulin, Q99983 (parent)
chain: MGFLSPIYVIFFFFGVKVHCQYETYQWDEDYDQEPDDDYQTGFPFRQNVDYGVPFHQYTLGCVSECFCPTNFPSSMYCDNRKLKTIPNIPMHIQQLYLQFNEIEAVTANSFINATHLKEINLSHNKIKSQKIDYGVFAKLPNLLQLHLEHNNLEEFPFPLPKSLERLLLGYNEISKLQTNAMDGLVNLTMLDLCYNYLHDSLLKDKIFAKMEKLMQLNLCSNRLESMPPGLPSSLMYLSLENNSISSIPEKYFDKLPKLHTLRMSHNKLQDIPYNIFNLPNIVELSVGHNKLKQAFYIPRNLEHLYLQNNEIEKMNLTVMCPSIDPLHYHHLTYIRVDQNKLKEPISSYIFFCFPHIHTIYYGEQRSTNGQTIQLKTQVFRRFPDDDDESEDHDDPDNAHESPEQEGAEGHFDLHYYENQE
B3: Dihydrofolate reductase type 2, P00383 (parent)
chain: MERSSNEVSNPVAGNFVFPSNATFGMGDRVRKKSGAAWQGQIVGWYCTNLTPEGYAVESEAHPGSVQIYPVAALERIN
B4: Pseudoazurin, P80401 (parent)
chain: MFHHSLAAAAAALLALAAPGFAATHEVHMLNKGESGAMVFEPAFVRAEPGDVINFVPTDKSHNVEAIKEILPEGVESFKSKINESYTLTVTEPGLYGVKCTPHFGMGMVGLVQVGDAPENLDAAKTAKMPKKARERMDAELAQVN
B5: chitinase, Q54276 (parent)
chain: MSTRKAVIGYYFIPTNQINNYTETDTSVVPFPVSNITPAKAKQLTHINFSFLDINSNLECAWDPATNDAKARDVVNRLTALKAHNPSLRIMFSIGGWYYSNDLGVSHANYVNAVKTPASRAKFAQSCVRIMKDYGFDGVDIDWEYPQAAEVDGFIAALQEIRTLLNQQTITDGRQALPYQLTIAGAGGAFFLSRYYSKLAQIVAPLDYINLMTYDLAGPWEKVTNHQAALFGDAAGPTFYNALREANLGWSWEELTRAFPSPFSLTVDAAVQQHLMMEGVPSAKIVMGVPFYGRAFKGVSGGNGGQYSSHSTPGEDPYPSTDYWLVGCEECVRDKDPRIASYRQLEQMLQGNYGYQRLWNDKTKTPYLYHAQNGLFVTYDDAESFKYKAKYIKQQQLGGVMFWHLGQDNRNGDLLAALDRYFNAADYDDSQLDMGTGLRYTGVGPGNLPIMTAPAYVPGTTYAQGALVSYQGYVWQTKWGYITSAPGSDSAWLKVGRVA
B6: Alpha-lactalbumin, P00711 (parent)
chain: MMSFVSLLLVGILFHATQAEQLTKCEVFRELKDLKGYGGVSLPEWVCTTFHTSGYDTQAIVQNNDSTEYGLFQINNKIWCKDDQNPHSSNICNISCDKFLDDDLTDDIMCVKKILDKVGINYWLAHKALCSEKLDQWLCEKL
B7: Cytochrome c-552, P15452 (parent)
chain: MKKFLLVAVVGLAGITFANEQLAKQKGCMACHDLKAKKVGPAYADVAKKYAGRKDAVDYLAGKIKKGGSGVWGSVPMPPQNVTDAEAKQLAQWILSIK
B8: T-cell surface antigen CD2, P08921 (parent)
chain: MRCKFLGSFFLLFSLSSKGADCRDSGTVWGALGHGINLNIPNFQMTDDIDEVRWERGSTLVAEFKRKMKPFLKSGAFEILANGDLKIKNLTRDDSGTYNVTVYSTNGTRILNKALDLRILEMVSKPMIYWECSNATLTCEVLEGTDVELKLYQGKEHLRSLRQKTMSYQWTNLRAPFKCKAVNRVSQESEMEVVNCPEKGLPLYLIVGVSAGGLLLVFFGALFIFCICKRKKRNRRRKGEELEIKASRMSTVERGPKPHSTQASAPASQNPVASQAPPPPGHHLQTPGHRPLPPSHRNREHQPKKRPPPSGTQVHQQKGPPLPRPRVQPKPPCGSGDVSLPPPN
B9: Elongation factor Ts, P43895 (parent)
chain: MSQMELIKKLREATGAGMMDVKRALEDAGWDEEKAVQLLRERGAMKAAKKADREAREGIIGHYIHHNQRVGVLVELNCETDFVARNELFQNLAKDLAMHIAMMNPRYVSAEEIPAEELEKERQIYIQAALNEGKPQQIAEKIAEGRLKKYLEEVVLLEQPFVKDDKVKVKELIQQAIAKIGENIVVRRFCRFELGA
B10: Phosphocarrier protein HPr, P08877 (parent)
chain: MAQKTFKVTADSGIHARPATVLVQTASKYDADVNLEYNGKTVNLKSIMGVMSLGIAKGAEITISASGADENDALNALEETMKSEGLGE
B11: Endo-1,4-beta-xylanase 2, P36217 (parent)
chain: MVSFTSLLAGVAAISGVLAAPAAEVESVAVEKRQTIQPGTGYNNGYFYSYWNDGHGGVTYTNGPGGQFSVNWSNSGNFVGGKGWQPGTKNKVINFSGSYNPNGNSYLSVYGWSRNPLIEYYIVENFGTYNPSTGATKLGEVTSDGSVYDIYRTQRVNQPSIIGTATFYQYWSVRRNHRSSGSVNTANHFNAWAQQGLTLGTMDYQIVAVEGYFSSGSASITVS
B12: N-(5'-phosphoribosyl)anthranilate isomerase, P00912 (parent)
chain: MSVINFTGSSGPLVKVCGLQSTEAAECALDSDADLLGIICVPNRKRTIDPVIARKISSLVKAYKNSSGTPKYLVGVFRNQPKEDVLALVNDYGIDIVQLHGDESWQEYQEFLGLPVIKRLVFPKDCNILLSAASQKPHSFIPLFDSEAGGTGELLDWNSISDWVGRQESPESLHFMLAGGLTPENVGDALRLNGVIGVDVSGGVETNGVKDSNKIANFVKNAKK
B13: NADP-dependent isopropanol dehydrogenase, P25984 (parent)
chain: MKGFAMLGINKLGWIEKERPVAGSYDAIVRPLAVSPCTSDIHTVFEGALGDRKNMILGHEAVGEVVEVGSEVKDFKPGDRVIVPCTTPDWRSLEVQAGFQQHSNGMLAGWKFSNFKDGVFGEYFHVNDADMNLAILPKDMPLENAVMITDMMTTGFHGAELADIQMGSSVVVIGIGAVGLMGIAGAKLRGAGRIIGVGSRPICVEAAKFYGATDILNYKNGHIVDQVMKLTNGKGVDRVIMAGGGSETLSQAVSMVKPGGIISNINYHGSGDALLIPRVEWGCGMAHKTIKGGLCPGGRLRAEMLRDMVVYNRVDLSKLVTHVYHGFDHIEEALLLMKDKPKDLIKAVVIL

Several values for one entry are separate records, joined by “and”; a condition that tells them apart may be missing. Equal entries are not always repeated.

The variants in one data set derive from B1. Particulars: Homo sapiens; Thermal; fluorescence; structure 6U07; whole UniProt chain shown.
For orientation: Tm means the temperature at which the thermal transition is half complete. As to T132I, the melting temperature (Tm) is 55.7 °C and the “change of melting temperature, mutant - wild type (higher = more stable)” value (“change of melting temperature, mutant” below) amounted to 0.8 °C.

The next data set covers variants of B2. Particulars: Homo sapiens; pH 7.4; Thermal; DSC; PBS; transition: 2; structure 5YQ5; whole UniProt chain shown.
In the case of D254R, the Tm was 37 °C. Take E173R: the midpoint of thermal melting (Tm) amounted to 42.3 °C. On the same count and under the same terms, as for E225R, the figure is 41.8 °C; as for E284R E303R, 43.8 °C.

In the case of E284R, the midpoint of thermal melting (Tm) stood at 42.3 °C.

Regarding E303R, the Tm is 43.3 °C.

Turning to N278R, the Tm worked out at 38.5 °C.

Variants of B3 are the subject of another data set. Particulars: Escherichia coli; pH 5; 22 °C; GdnHCl; CD; phosphate 10 mM; structure 1VIE; whole UniProt chain shown.
For the variant W45F, the unfolding free energy is 13.6 kcal/mol and 12.7 kcal/mol.

Take W38F: the unfolding free energy is 15.3 kcal/mol and 15.6 kcal/mol.

The variants in a further data set derive from B4. Conditions: Paracoccus pantotrophus; pH 7; 25 °C; Urea; CD; Sodium phosphate 20 mM; Na2SO4 0.5 M; reversible: yes; structure 1ADW; whole UniProt chain shown.
For Y96W, the denaturant m value was 1.19 kcal/mol/M.

In a further data set the parent is B5. Particulars: Serratia marcescens; pH 8; Thermal; CD; sodium phosphate 20 mM; reversible: No; structure 1E6N; whole UniProt chain shown.
Take G188A A234P: the midpoint of thermal melting (Tm) came to 64.1 °C and the “change of melting temperature, mutant” value worked out at 4.2 °C.

Another data set covers variants of B6. Particulars: Bos taurus; pH 8; Thermal; Fluorescence; HEPES 10 mM; CaCl2 1 mM; structure 1HFZ; whole UniProt chain shown.
On to D106N, for which the midpoint of thermal melting (Tm) was 31.4 °C and the “change of melting temperature, mutant” value was 6.8 °C.

In the next data set the parent is B7. Particulars: Hydrogenobacter thermophilus (strain DSM 6534 / IAM 12695 / TK-6); pH 7; Thermal; CD; reversible: yes; structure 1YNR; whole UniProt chain shown.
Consider A91V, for which the “change of melting temperature, mutant” value was -7.5 °C and -2.9 °C.

The variants in a further data set derive from B8. Particulars: Rattus norvegicus; pH 5; 25 °C; Urea; Fluorescence; Sodium acetate 50 mM; reversible: yes; structure 1HNG; whole UniProt chain shown.
Y98F: the “ddG of mutation (higher = less stable)” value was -1.49 kcal/mol.

Variants of B9 are the subject of a further data set. Particulars: Thermus thermophilus (strain ATCC 27634 / DSM 579 / HB8); pH 7; Thermal; CD; Phosphate 10 mM; reversible: No; structure 1TFE; whole UniProt chain shown.
With C190A, the melting temperature (Tm) turned out to be 105 °C and the “change of melting temperature, mutant” value is -10 °C.

The variants in another data set derive from B10. Conditions: Bacillus subtilis (strain 168); pH 7; 30 °C; Urea; CD; Potassium phosphate 50 mM; reversible: yes; structure 2HPR; whole UniProt chain shown.
As for S46D, the “ddG of mutation (higher = less stable)” value was -0.74 kcal/mol and the “denaturant midpoint (higher = more stable)” value was 4.63 M.

Staying with this data set, now noted: Bacillus subtilis (strain 168); pH 7; 73.6 °C; Thermal; CD; Potassium phosphate 50 mM; reversible: yes; structure 2HPR; whole UniProt chain shown.
Consider S46D, for which the “ddG of mutation (higher = less stable)” value was -0.7 kcal/mol.

Variants of B11 are the subject of another data set. Particulars: Hypocrea jecorina (strain ATCC 56765 / BCRC 32924 / NRRL 11460 / Rut C-30); pH 5; Thermal; DSC; citrate - phosphate buffer 50 mM; structure 1ENX; whole UniProt chain shown.
For the variant T35C T61C K91R, the melting temperature (Tm) came to 72.5 °C and the “change of melting temperature, mutant” value is 11.1 °C.

The variants in the next data set derive from B12. Particulars: Saccharomyces cerevisiae (strain ATCC 204508 / S288c); pH 6.5; 23 °C; GdnHCl; CD; Potassium phosphate 0.05 M; reversible: yes; whole UniProt chain shown.
S212C: the “ddG of mutation (higher = less stable)” value is 1 kcal/mol.

In the next data set the parent is B13. Conditions: Clostridium beijerinckii; pH 6.8; Thermal; CD; Na/K phosphate 50 mM; structure 1KEV; whole UniProt chain shown.
As for V224E S254K Q165E M304R, the Tm came out at 73.7 °C and the “change of melting temperature, mutant” value was determined as 8.6 °C. Taken in the same sequence, the figures for V224E S254K were 70.5 °C and 5.4 °C. Taken in the same sequence, the figures for Q165E M304R were 70.4 °C and 5.3 °C.

Consider V224E S254K Q165E M304R R238A, for which the melting temperature (Tm) was 73.6 °C and the “change of melting temperature, mutant” value was determined as 8.5 °C.
